Results as given in article PMC10539301.

Biological target: ATAD2 Walker B mutant (E532Q), aa 403-1390 (human) (UniProt Q6PL18)
Sequence (Q6PL18 403-1390 E532Q): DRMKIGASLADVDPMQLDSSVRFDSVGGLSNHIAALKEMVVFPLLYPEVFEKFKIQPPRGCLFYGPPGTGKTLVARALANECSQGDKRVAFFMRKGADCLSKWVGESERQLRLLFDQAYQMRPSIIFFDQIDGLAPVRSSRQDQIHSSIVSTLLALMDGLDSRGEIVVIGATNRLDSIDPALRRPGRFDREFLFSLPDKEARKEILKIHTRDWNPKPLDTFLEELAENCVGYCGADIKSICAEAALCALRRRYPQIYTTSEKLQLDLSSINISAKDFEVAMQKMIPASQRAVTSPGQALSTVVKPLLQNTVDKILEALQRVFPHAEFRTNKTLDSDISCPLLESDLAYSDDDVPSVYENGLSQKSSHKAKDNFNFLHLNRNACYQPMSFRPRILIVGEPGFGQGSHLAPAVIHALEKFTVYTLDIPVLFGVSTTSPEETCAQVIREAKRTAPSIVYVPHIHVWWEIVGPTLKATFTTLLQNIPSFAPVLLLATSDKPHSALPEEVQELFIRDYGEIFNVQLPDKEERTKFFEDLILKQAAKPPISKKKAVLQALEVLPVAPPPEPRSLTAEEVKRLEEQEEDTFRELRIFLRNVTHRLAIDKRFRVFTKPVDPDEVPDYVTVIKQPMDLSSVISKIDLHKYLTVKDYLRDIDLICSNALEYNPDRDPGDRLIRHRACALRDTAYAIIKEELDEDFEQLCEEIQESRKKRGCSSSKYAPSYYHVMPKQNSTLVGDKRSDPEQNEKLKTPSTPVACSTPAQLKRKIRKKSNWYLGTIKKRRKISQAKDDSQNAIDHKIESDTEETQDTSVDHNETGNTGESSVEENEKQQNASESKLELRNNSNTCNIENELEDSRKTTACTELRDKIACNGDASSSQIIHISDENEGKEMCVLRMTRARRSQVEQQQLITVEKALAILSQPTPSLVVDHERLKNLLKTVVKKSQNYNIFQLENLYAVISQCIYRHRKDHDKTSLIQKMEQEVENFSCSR

## Histone H3/H4 complex (X. laevis, wild type, refolded) (from UniProt P84233 1-136; P62799 1-103)
  HS-AFM: increase of the frequency of symmetry breaking of the ATAD2 Walker B hexameric ring (events per ring or per cumulative observation time) with H3/H4: 40%
  HS-AFM: reversibility of symmetry breaking of the ATAD2 Walker B hexameric ring, without and with H3/H4: 30%
